Measurements from the RNAGym collection of RNA variant scans (doi:10.7554/elife.90254).

B1: OR4K15 (parent)
chain: GUUAACGGUCAUAGGCCAUGGAAACUAGGAGCACCAUUUCGCUGCCAGUGAAGAAAUGAACAAAGAAAAUCUGGGCCAGGCAGGCAUCAAAAGAAAUAGUCUUGCGCUCAACCAGAAAGUCUGUAAUCAUUUUAAGGGUA

Variants of: B1
Assay: self-cleavage, relative activity (ratio to wild type); higher = more cleavage; in vitro, sequencing; the parent is a self-cleaving ribozyme

Point of comparison: GUUAACGGUCAGAGGCCAUGGAAACUAGGAGCACCAUUUCGCUGCCAGUGAAGAAAUGAACAAAGAAAAUCUGGGCCAGGCAGGCAUCAAAAGAAAUAGCCUUGCGCUCAACCAGAAAGUCUGUAAUCAUUUUAAGGGUA [U12G U100C], self-cleavage 1.76. Against it:
- GUUGACGGUCAUAGGCCAUGGAAACUAGGAGCACCAUUUCGCUGCCAGUGAAGAAAUGAACAAAGAAAAUCUGGGCCUGGCAGGCAUCAAAAGAAAUAGUCUUGCGCUCAACCAGAAAGUCUGUAAUCAUUUUAAGGGUA [A4G A78U] — lower, 0.63
- GUUAACGGUCACAGGCCAUGGAAACUAGGAGCACCAUUUCGCUGCCAGUGAAGAAAUGAACAAAGAAAAUCUGGGCCAGGCAGGCAUCAAAAGAAAUAGUCUUGCGCUCAACCAGGAAGUCUGUAAUCAUUUUAAGGGUA [U12C A116G] — lower, 0.73
- GUUAACGGUCCUAGGCCAUGGAAACUAGGAGCACCAUUUCGCUGCCAGUGAAGAAAUGAACAAAGAAAAUCUGGGCCAGGCAGGCAUCAAAAGAAAUAGUCUUGCGCUCAACCAGAAAGUCUGUGAUCAUUUUAAGGGUA [A11C A125G] — lower, 0.5
- GUUCACGGUCAUAGGCCAUGGAAACUAGGAGCACCAUUUCGCUGCCAGUGAAGAAAUGAACGAAGAAAAUCUGGGCCAGGCAGGCAUCAAAAGAAAUAGUCUUGCGCUCAACCAGAAAGUCUGUAAUCAUUUUAAGGGUA [A4C A62G] — lower, 0.88
- GUUAACGGUCGUAGGCCAUGGAAACUAGGAGCACCAUUUCGCUGCCAGUGAAGAAAUGAACAAAGUAAAUCUGGGCCAGGCAGGCAUCAAAAGAAAUAGUCUUGCGCUCAACCAGAAAGUCUGUAAUCAUUUUAAGGGUA [A11G A66U] — lower, 1.45
- GUUAACGGUCAUAGGCCAUGGAAACUAGGAGCACCAUUUCGCUGCCAGUGAAGAAAUGAACAAAGAAAAUCUGGGCCAGGCAGGCAUCAAAAGAAAUAGUCUUGCGCUCUACCAGAAAGUCCGUAAUCAUUUUAAGGGUA [A110U U122C] — lower, 0.92
- GUUAACGGUCAUAGGCCAUGGAAACUAGGAGCACCAUUUCGCUGCCAGUGAAGAAAUGAACAAAGAAAAUCAGGGCCAGGCAGGCAUCAAUAGAAAUAGUCUUGCGCUCAACCAGAAAGUCUGUAAUCAUUUUAAGGGUA [U72A A91U] — lower, 0.24
- GUUAACGGUCAUAGGCCAUGGAAACUAGGAGCACCAUUUCGCUGCCAGUGAGGAAAUGAACAAAGAAAAUCUGGGCCAGGCAGGCAUCAAAAGAAAUAGUCUUGCGCGCAACCAGAAAGUCUGUAAUCAUUUUAAGGGUA [A52G U108G] — lower, 0.03
- GUUAACGGUCAUAAGCCAUGGAAACUAGGAGCACCAUUUCGCUGCCAGUGAAGAAAUGAACAAAGAAAAUCUGGGCCAGGCAGGCAUCGAAAGAAAUAGUCUUGCGCUCAACCAGAAAGUCUGUAAUCAUUUUAAGGGUA [G14A A89G] — lower, 0.65
- GUUAACGGUCAUAGGCCAUGGAAACUAGGAGCACCAUCUCGCUGCCAGUGAAGAAAUGAACAAAGAAAAUCUGGGCCAGGCAGGCAUCAAAAGAAACAGUCUUGCGCUCAACCAGAAAGUCUGUAAUCAUUUUAAGGGUA [U38C U97C] — lower, 1.57
- GUAAACGGUCAUAGGCCAUGGAAACUAGGAGCACCAUUUCGCUGCCAGUGAAGAAAUGAACAAAGAAAAUCUGAGCCAGGCAGGCAUCAAAAGAAAUAGUCUUGCGCUCAACCAGAAAGUCUGUAAUCAUUUUAAGGGUA [U3A G74A] — lower, 0.39
- GUUAACGGUCAUAGGUCAUGGAAACUAGGAGCACCAUUUCGCUGCCAGUGAAGAAAUGAACAAAGAAAACCUGGGCCAGGCAGGCAUCAAAAGAAAUAGUCUUGCGCUCAACCAGAAAGUCUGUAAUCAUUUUAAGGGUA [C16U U70C] — lower, 0.79
- GUUAACGGUCAUAGGCCAUGGAAACUAGGAGCAACAUUUCGCUGCCAGUGAAGAAAUGAACAAAGAAAAUCUGGGCCAGGCGGGCAUCAAAAGAAAUAGUCUUGCGCUCAACCAGAAAGUCUGUAAUCAUUUUAAGGGUA [C34A A82G] — lower, 0.76
- GUUAACGGUCAUAGGCCAUGGAAUCUAGGAGCACCAUUUCGCUGCCAGUGAAGAAAUGAACAAAGAAAAUCUGGGCCAGGCAGGCAUCAAAAGAAAUGGUCUUGCGCUCAACCAGAAAGUCUGUAAUCAUUUUAAGGGUA [A24U A98G] — lower, 0.45
- GUUAACGGUCAUAGGCCAUGGAACCUAGGAGCACCAUUUCGCUGCCAGUGAAGAAAUGAACAAAGAAAGUCUGGGCCAGGCAGGCAUCAAAAGAAAUAGUCUUGCGCUCAACCAGAAAGUCUGUAAUCAUUUUAAGGGUA [A24C A69G] — lower, 1.24
- GUUAACGGUCAUAGGCCAUGGAAGCUAGGAGCACCAUUUCGCUGCCAGUGAAGAAAUGAACAAAGAAAAUCUGGGCCAGGCAGGCAUCAAAAGAAAUAGUCUUGCGCUCGACCAGAAAGUCUGUAAUCAUUUUAAGGGUA [A24G A110G] — lower, 0.17
- GUUAACGGUCAUAGGCCAUGGGAACUAGGAGCACCAUUUCGCUGCCAGUGAAGAAAUGAACAAAGAAAAUCUGGGCCAGGCAGGCAUCAAAAGAAAUAGUCUUGCGCUCAACCAGAAAGUCUGUGAUCAUUUUAAGGGUA [A22G A125G] — lower, 0.57
- GUUAACGGUCAUAGGCCAUGGAAACUAGGAGCACCAUUUCGCUGCCAGUGAAGAAAUGAACAAAGAAAAUCUGGGCCAGGCAAGCAUCUAAAGAAAUAGUCUUGCGCUCAACCAGAAAGUCUGUAAUCAUUUUAAGGGUA [G83A A89U] — higher, 1.82
- GUUAACGGUCAUAGGCCAUGGAAACUAGGAGCACCAUUUCGCUGCCAGUGAAGAAAUGUACAAAGAAAAUCUGGGCCAGGCGGGCAUCAAAAGAAAUAGUCUUGCGCUCAACCAGAAAGUCUGUAAUCAUUUUAAGGGUA [A59U A82G] — lower, 0.43
- GUUAACGGUCAUAGGCCAUGGAAACUAGGAGCACCAUUUCGCUGCCAGUGAAGAAAUGAACAAAGAAAAUCUGGGCCAGGCAGGCGUCAAAAGAAAUAGUCUUGCGCUCAACCAGAAAGCCUGUAAUCAUUUUAAGGGUA [A86G U120C] — lower, 0.35
- GUUAACGGUCAUAGGCCAUGGAAACUAGGAGCACCAUUUCGCUGCCAGUGAAGAAAUGAACAAAGAAAAUCUGGGCCAGGCUGGCAUCAAAAGAAAUAGUCUUGCGCUCAACCAGAAAGUCUGUAAUCAUAUUAAGGGUA [A82U U131A] — lower, 0.07
- GUUAACGGUCAUAGGCCAUGGAAACUAGGAGCACCAUUUCGCUGCCAGUGAAGAAAUGAACAAAGAAAAUCUGGGCCAGGCAGGCACCAAAAGAAAUAGUCUUGCGCUCAACCAGAAAGUCUGUAAUCAUUUUAAGAGUA [U87C G137A] — higher, 2.3
- GUUAACGGUCAUAGGCCAUGGAAACUAGGAGCACCAUUUCGCUGCCAGUGAAGAAAUGUACAAAGAAAAUCUGGGCCAGGCAGGCAUCAAAAGAAAUAGUCUUGCGCUCAACCAGAAAGUCUGUAAUCAUUUUUAGGGUA [A59U A134U] — higher, 1.92
- GUUAACGGUCAUAGGCCAUGGAAACUAGGAGCACCAUUUCGCUGCCAGUGAAGAAAUGAACAAAGAAAAUCUGGGCCAGGCAGGCAUCAAAAGAAAUAGUCAUGCGCUCAACCAGAGAGUCUGUAAUCAUUUUAAGGGUA [U102A A117G] — lower, 1.12
- GUUAACGGUCAUAGGCCAAGGAAACUAGGAGCACCAUUUCGCUGCCAGUGAGGAAAUGAACAAAGAAAAUCUGGGCCAGGCAGGCAUCAAAAGAAAUAGUCUUGCGCUCAACCAGAAAGUCUGUAAUCAUUUUAAGGGUA [U19A A52G] — lower, 1.35
- GUUAACGGUCAUAGGCCAUGGAAACUAGGAGCACCACUUCGCUGCCAGUGAAGAAAUGAACAAAGAAAAUCAGGGCCAGGCAGGCAUCAAAAGAAAUAGUCUUGCGCUCAACCAGAAAGUCUGUAAUCAUUUUAAGGGUA [U37C U72A] — lower, 0.51
- GUUGACGGUCAUAGGCCAUGGAAACUAGGAGCACCAUUUCGCUGCCAGUGAAGAAAUGAACAAAGAAACUCUGGGCCAGGCAGGCAUCAAAAGAAAUAGUCUUGCGCUCAACCAGAAAGUCUGUAAUCAUUUUAAGGGUA [A4G A69C] — lower, 0.53
- GUUAACGGUCAUAGGCCAUGGAAACUAGGAGCACCAUUUCGCUGCCAGUGAAGAAAUGAACAAAGAAAAUCUGGGCCAGGCAGGCAUCAAAAGAGAUAGUCCUGCGCUCAACCAGAAAGUCUGUAAUCAUUUUAAGGGUA [A95G U102C] — higher, 2.62
- GUUAACGGUCAUAGGCCAUGGAUACUAGGAGCACCAUUUCGCUGCCAGUGCAGAAAUGAACAAAGAAAAUCUGGGCCAGGCAGGCAUCAAAAGAAAUAGUCUUGCGCUCAACCAGAAAGUCUGUAAUCAUUUUAAGGGUA [A23U A51C] — lower, 1.55
- GUUAACGGUCAUAGGCCAUGGAAACUAGGAGCACCAUUUCGCUGCCAGUGAAGAAAUGAACAAAGAAAAUCUGGGCCAGGCAGGCAUCAAACGAAAUAGUCUUGCGCUCAACCAGAAAGUCUGUAAUCAUUUUAAGGGUA [A92C] — lower, 1.27
- GUUAACGGUCAUAGGCCAUGGAAGCUAGGAGCACCAUUUCGCUGCCAGUGAAGAAAUGAACAAAGAAAAUCUGGGCCAGGCAGGCAUCAAAAGAAAUAGUCUUGCGCUCAACCAGAAAGUCGGUAAUCAUUUUAAGGGUA [A24G U122G] — higher, 2.31
- GUUAACGGUCAUAGGCCAUGGAAACUAGGAGCACCAUUCCGCUGCCAGAGAAGAAAUGAACAAAGAAAAUCUGGGCCAGGCAGGCAUCAAAAGAAAUAGUCUUGCGCUCAACCAGAAAGUCUGUAAUCAUUUUAAGGGUA [U39C U49A] — lower, 1.41
- GUUAACGGUCAUAGGCCAUGGAAACUAAGAGCACCAUUUCGCUGCCAGUGAAGAAAUGAACAAAGAAAAUCUGGGCCAGGCAGGCAUCAAAAGAAACAGUCUUGCGCUCAACCAGAAAGUCUGUAAUCAUUUUAAGGGUA [G28A U97C] — lower, 0.59
- GUUAACGGUCAUGGGCCAUGGAAACUAGGAGCACCAUUUCGCUGCCAGUGAAGAAAUGAACAAAGAAAAUCUGGGCCAGGCAGGCAUCCAAAGAAAUAGUCUUGCGCUCAACCAGAAAGUCUGUAAUCAUUUUAAGGGUA [A13G A89C] — lower, 0
- GUUAACGGUCAUAGGCCAUGGAAACUAGGAGCACCAUUUCGCUGCCAGUGAAGAAAUGAACGAAGAAAAUCUGGGCCAGGCAGGCAUCAAAAGAAAUAGUCUUGCGCUCAACCAGAAAGUCUGUAAUCACUUUAAGGGUA [A62G U130C] — lower, 1.15
- GUUAACGGUCAUAGGCCAUGGAAACUAGGAGAACCAUUUCGCUGCCAGUGAAGAAAUGAACAAAGAAAAUCUGGGCCAGGCAGGCAUCAAAAGAAAUAGUCUUGCGCUCAACCAGAAAGUCUGUAAUCAUUUUAAGGGUA [C32A] — lower, 1.2
- GUUAACGGUCAUAGGCCAUGGAAACUAGGAGCAUCAUUUCGCUGCCAGUGAAGAAAUGAACAAAGAAAAUCUGGGCCAGGCAGGCAUCAAAAGAAAUAGUCUUGCGCUCAACCAGAAAGUCUGUAAUCAUUUUAAGGGUA [C34U] — lower, 1.35
- GUUAACGGUCAUAGGCCAUGGAAACUAGGAUCACCAUUUCGCUGCCAGUGAAGAAAUGAACAAAGAAAAUCUGGGCCAGGCAGGCAUCAAAGGAAAUAGUCUUGCGCUCAACCAGAAAGUCUGUAAUCAUUUUAAGGGUA [G31U A92G] — lower, 1.27
- GUUACCGGUCAUAGGCCAUGGAAACUAGGAGCACCAUUUCGCUGCCAGUGAAGAAAUGAACAAAGAAAAUCUGGGCCAGGCAGGCAUCAAAAGAAAUAGUCUUGCGCUCAACCAGAAAGUCUGUAAUCAUUUUUAGGGUA [A5C A134U] — higher, 2.1
- GUUAACGGUCAUAGGCCAUGGAACCUAGGAGCACCAUUUCGCUGCCAGUGAAGAAAUGAACAAAGAAAAUCUGGGCCAGGCAGGCAUCAAAAGAAAUGGUCUUGCGCUCAACCAGAAAGUCUGUAAUCAUUUUAAGGGUA [A24C A98G] — lower, 0.56
